In patent US12630600B2 (MEDIMMUNE LIMITED, priority 2022, dated 2026):
Starred links: 1 amine or outer side, 2 acyl side, 3 side chain; linkers in the order of their positions; H or OH if unused. Non-standard residues stand in square brackets, D forms with d. Groups on a side chain read outwards from the residue. No end group written: not given here. *: point of attachment. C20 diacid = O=C(O)CCCCCCCCCCCCCCCCCCC(=O)*; C18 diacid = O=C(O)CCCCCCCCCCCCCCCCC(=O)*; γGlu = O=C(O)[C@H](CCC(=O)[*:2])N[*:1]; αMeF = C[C@](N)(Cc1ccccc1)C(=O)O; AEEA = NCCOCCOCC(=O)O; Aib = CC(C)(N)C(=O)O

target: human glucagon receptor (human, UniProt P47871); test: cell-based or functional assay

How did the “hGluc-R EC50 (pM)” value turn out when H[Aib]HGS[αMeF]TSDVSK[αMeF]LDSRAAK([AEEA-AEEA-γGlu-γGlu-C20 diacid])D[αMeF]VQ[Aib]IANT-NH2 [Peptide 281] was run?
Its value is 1040 pM.

With H[Aib]HGS[αMeF]TSDVSK[αMeF]LDSRAAK([AEEA-AEEA-γGlu-γGlu-C20 diacid])D[αMeF]VQ[Aib]IANT-NH2 (not fully specified) [Peptide 282] as the binder, how does the “hGluc-R EC50 (pM)” value read?
The value was 1140 pM.

Which “hGluc-R EC50 (pM)” value does the source give for H[Aib]HGS[αMeF]TSDVSK[αMeF]LDSRAAK([AEEA-AEEA-γGlu-C18 diacid])D[αMeF]VQ[Aib]IANT-NH2 [Peptide 284] here?
Its value is 119 pM.

With HSHGS[αMeF]TSDVSK[αMeF]LDSRAAK([AEEA-AEEA-γGlu-C18 diacid])D[αMeF]VQ[Aib]IANT-NH2 [Peptide 285] as the binder, how does the “hGluc-R EC50 (pM)” value read?
Its value is 87 pM.

Which “hGluc-R EC50 (pM)” value does the source give for H[Aib]HGS[αMeF]TSDVSKYLDSRAAK([AEEA-AEEA-γGlu-C18 diacid])D[αMeF]VQ[Aib]IANT-NH2 (not fully specified; also: X13: αMePhe or Y (table)) [Peptide 286] here?
The value was 53 pM.

For H[Aib]HGS[αMeF]TSDVSK[αMeF]LDSRAAK([AEEA-AEEA-γGlu-C18 diacid])DFVQ[Aib]IANT-NH2 [Peptide 287], which “hGluc-R EC50 (pM)” value is on record?
Its value is 26.5 pM.

Which “hGluc-R EC50 (pM)” value does the source give for H[Aib]HGS[αMeF]TSDVSK[αMeF]LDSRAAK([AEEA-AEEA-γGlu-C18 diacid])D[αMeF]VQWIANT-NH2 [Peptide 288] here?
The value was 26.9 pM.

Which “hGluc-R EC50 (pM)” value does the source give for H[Aib]HGS[αMeF]TSDVSK[αMeF]LDSRAAKD[αMeF]VQWIANT-NH2 (not fully specified (residue 20); also: X13: αMePhe or Y (table)) [Peptide 289] here?
The value was 148 pM.

How did the “hGluc-R EC50 (pM)” value turn out when H[Aib]HGS[αMeF]TSDVSK[αMeF]LDSRAAK([AEEA-AEEA-γGlu-γGlu-C20 diacid])DFVQWIANT-NH2 (not fully specified) [Peptide 290] was run?
The value was 260 pM.

With H[Aib]HGS[αMeF]TSDVSKYLDSRAAKDFVQWIANT-NH2 (not fully specified (residue 20)) [Peptide 292] as the binder, how does the “hGluc-R EC50 (pM)” value read?
The value was 20.4 pM.

With H[Aib]HGS[αMeF]TSDVSK[Aib]LDSRAAK([AEEA-AEEA-γGlu-γGlu-C20 diacid])D[αMeF]VQ[Aib]IANT-NH2 [Peptide 295] as the binder, how does the “hGluc-R EC50 (pM)” value read?
The value was 17100 pM.

For H[Aib]HGS[αMeF]TSDVSK[Aib]LDSRAAK([AEEA-AEEA-γGlu-C18 diacid])D[αMeF]VQ[Aib]IANT-NH2 [Peptide 296], which “hGluc-R EC50 (pM)” value is on record?
Its value is 3250 pM.

target: human GLP-1 receptor (human, UniProt P43220); test: cell-based or functional assay

How did the “hGLP-1R EC50 (pM)” value turn out when H[Aib]HGS[αMeF]TSDVSK[αMeF]LDSRAAK([AEEA-AEEA-γGlu-γGlu-C20 diacid])D[αMeF]VQ[Aib]IANT-NH2 [Peptide 281] was run?
Its value is 155 pM.

With H[Aib]HGS[αMeF]TSDVSK[αMeF]LDSRAAK([AEEA-AEEA-γGlu-γGlu-C20 diacid])D[αMeF]VQ[Aib]IANT-NH2 (not fully specified) [Peptide 282] as the binder, how does the “hGLP-1R EC50 (pM)” value read?
The value was 1230 pM.

Which “hGLP-1R EC50 (pM)” value does the source give for H[Aib]HGS[αMeF]TSDVSK[αMeF]LDSRAAK([AEEA-AEEA-γGlu-C18 diacid])D[αMeF]VQ[Aib]IANT-NH2 [Peptide 284] here?
Its value is 43.4 pM.

For HSHGS[αMeF]TSDVSK[αMeF]LDSRAAK([AEEA-AEEA-γGlu-C18 diacid])D[αMeF]VQ[Aib]IANT-NH2 [Peptide 285], which “hGLP-1R EC50 (pM)” value is on record?
The value was 301 pM.

For H[Aib]HGS[αMeF]TSDVSKYLDSRAAK([AEEA-AEEA-γGlu-C18 diacid])D[αMeF]VQ[Aib]IANT-NH2 (not fully specified; also: X13: αMePhe or Y (table)) [Peptide 286], which “hGLP-1R EC50 (pM)” value is on record?
Its value is 31.6 pM.

Which “hGLP-1R EC50 (pM)” value does the source give for H[Aib]HGS[αMeF]TSDVSK[αMeF]LDSRAAK([AEEA-AEEA-γGlu-C18 diacid])DFVQ[Aib]IANT-NH2 [Peptide 287] here?
Its value is 27.5 pM.

With H[Aib]HGS[αMeF]TSDVSK[αMeF]LDSRAAK([AEEA-AEEA-γGlu-C18 diacid])D[αMeF]VQWIANT-NH2 [Peptide 288] as the binder, how does the “hGLP-1R EC50 (pM)” value read?
The value was 42.7 pM.

How did the “hGLP-1R EC50 (pM)” value turn out when H[Aib]HGS[αMeF]TSDVSK[αMeF]LDSRAAKD[αMeF]VQWIANT-NH2 (not fully specified (residue 20); also: X13: αMePhe or Y (table)) [Peptide 289] was run?
Its value is 118 pM.

Which “hGLP-1R EC50 (pM)” value does the source give for H[Aib]HGS[αMeF]TSDVSK[αMeF]LDSRAAK([AEEA-AEEA-γGlu-γGlu-C20 diacid])DFVQWIANT-NH2 (not fully specified) [Peptide 290] here?
The value was 347 pM.

H[Aib]HGS[αMeF]TSDVSKYLDSRAAKDFVQWIANT-NH2 (not fully specified (residue 20)) [Peptide 292] was tested. Which “hGLP-1R EC50 (pM)” value did it give?
The value was 28.7 pM.

H[Aib]HGS[αMeF]TSDVSK[Aib]LDSRAAK([AEEA-AEEA-γGlu-γGlu-C20 diacid])D[αMeF]VQ[Aib]IANT-NH2 [Peptide 295] was tested. Which “hGLP-1R EC50 (pM)” value did it give?
The value was 312 pM.

With H[Aib]HGS[αMeF]TSDVSK[Aib]LDSRAAK([AEEA-AEEA-γGlu-C18 diacid])D[αMeF]VQ[Aib]IANT-NH2 [Peptide 296] as the binder, how does the “hGLP-1R EC50 (pM)” value read?
Its value is 64.1 pM.
